Where no end group is shown, it is not given here.
Molecular target: T1, 6×His标签 (组氨酸标签), 人工抗原6×His-OVA (also: covalently coupled to ovalbumin (OVA), chemistry and site not given here)
T1 construct: also called 多组氨酸标签; hexa组氨酸标签
T1 peptide: HHHHHH
Assay: indirect phage-ELISA of phage-displayed VHH clones after three rounds of panning on 6×His-OVA

B1: 针对His标签的单域重链抗体 (针对组氨酸标签的纳米抗体) (VHH)
VHH: QVQLVESGGGLVQAGGSLRLSCAVSGFTFSANAMSWVRQAPGKGPEWVSSINRGGASAEYADSVKGRFTISRDDAKNTLYLQMNSLKPEDTALYYCARGNYRGSYFNGPRTYWGRGTQVTVSP
notes: From an alpaca (Lama pacos) immune library; also called 抗His标签单域重链抗体
binding result: binds
